In assay [1] the target is F-Actin (UniProt P68135). Briefly: co-sedimentation; G-Actin polymerized 2.5 h at 25°C in polymerization buffer (5 mM Tris pH 8.0, 0.2 mM CaCl2, 1 mM ATP, 0.5 mM DTT, 5 mM KCl, 2 mM MgCl2) with equal amounts (0.125 μg/μl) of Simiate or GST; 100,000 g for 1 h; supernatant and pellet by SDS-PAGE.
For assay [2], the target named is F-Actin (UniProt P68135). Briefly: co-sedimentation; Actin pre-polymerized, sedimentated and then incubated with Simiate or the control protein; 100,000 g for 1 h; supernatant and pellet by SDS-PAGE.
A further assay deals with G-Actin (UniProt P68135).

Regarding recombinant Simiate (natural protein), the values for the percent of the total Simiate content in the sediment in the assay with F-Actin [1] and in the assay with F-Actin [2] were 51.4% and 50.8%, respectively. This substance came in with a decrease in amount of Actin polymerized after a period of 3 h (sedimentation assay), against Actin alone with G-Actin of 29%.

The values are drawn from publication PMC3986562.
